Test results: paper PMC4349606, “Solution structure and biophysical characterization of the multifaceted signalling effector protein growth arrest specific-1” (BMC Biochemistry, 2015)

Legend:
RET (Homo sapiens) = RET (Homo sapiens) (UniProt P07949); details: cited from earlier work
[1] = target: T1, ectodomain of RET protein (ecRET; R&D Systems, catalog no. 1168-CR-050/CF) (UniProt P07949 29-635); experiment: SPR; Biacore; ecRET amine-coupled to a CM5 chip at 4000 RU; GAS1 series 2-32 uM injected at 20 ul/min for 2 min; 10 mM Hepes pH 7.4, 150 mM NaCl, 1 mM CaCl2, 0.01% Triton X-100; Kd from equilibrium responses (Req), two independent experiments; details: both partners purified
T1 construct: Rearranged during transformation (RET) receptor tyrosine kinase, ectodomain; also called RET receptor; extracellular part of RET; source: bought: R&D Systems (catalog no. 1168-CR-050/CF)
T1 sequence (P07949 29-635): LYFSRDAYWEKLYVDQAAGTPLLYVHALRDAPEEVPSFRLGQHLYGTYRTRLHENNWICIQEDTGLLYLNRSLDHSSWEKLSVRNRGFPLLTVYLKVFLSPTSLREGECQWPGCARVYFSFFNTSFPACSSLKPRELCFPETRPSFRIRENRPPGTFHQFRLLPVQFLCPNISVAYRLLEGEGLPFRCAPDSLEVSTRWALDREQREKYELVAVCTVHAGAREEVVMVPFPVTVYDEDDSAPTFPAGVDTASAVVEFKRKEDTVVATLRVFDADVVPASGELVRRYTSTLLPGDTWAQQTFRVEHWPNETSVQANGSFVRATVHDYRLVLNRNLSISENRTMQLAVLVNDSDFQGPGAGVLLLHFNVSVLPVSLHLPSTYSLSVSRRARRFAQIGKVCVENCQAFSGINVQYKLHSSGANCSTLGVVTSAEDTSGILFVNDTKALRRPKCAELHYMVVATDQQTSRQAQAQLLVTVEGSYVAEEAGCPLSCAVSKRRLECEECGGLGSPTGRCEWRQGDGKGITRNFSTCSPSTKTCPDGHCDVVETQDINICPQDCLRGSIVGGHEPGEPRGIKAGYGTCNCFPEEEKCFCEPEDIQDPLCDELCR

Sequence of RET (Homo sapiens) (P07949 29-635): as above

For GFRα1-GDNF (from UniProt P56159), the Kd (RET (Homo sapiens)) is given as 0.0002 µM.

B1: human growth arrest specific-1 (GAS1), soluble form without the GPI-anchor, amino acids 39-317 (domain or fragment, UniProt P54826 39-317, looked up)
chain: GLAHGRRLICWQALLQCQGEPECSYAYNQYAEACAPVLAQHGGGDAPGAAAAAFPASAASFSSRWRCPSHCISALIQLNHTRRGPALEDCDCAQDENCKSTKRAIEPCLPRTSGGGAGGPGAGGVMGCTEARRRCDRDSRCNLALSRYLTYCGKVFNGLRCTDECRTVIEDMLAMPKAALLNDCVCDGLERPICESVKENMARLCFGAELGNGPGSSGSDGGLDDYYDEDYDDEQRTGGAGGEQPLDDDDGVPHPPRPGSGAAASGGRGDLPYGPGRRS
modifications: glycosylated: approximately one N-glycan added in the insect cells (N-glycosylation site predicted at Asn117)
notes: secreted with the honey bee mellitin signal of the vector pK509.3; after thrombin cleavage Gly-Ser of the site probably remains at the N-terminus (surmise); Theoretical mass without glycan printed as 29.0 kDa; also called recombinant human GAS1; not shown: FLAG, N-terminal, cleaved; His6, N-terminal, cleaved
B1 showed a Kd [1] of 12.2 µM.
